Reference: paper PMC12442389

Assays:
[1] = molecular target: CW7_Lyz2 (amino acids 142 to 473, two cpl-7 motifs and the glucosaminidase domain of PlyCYU) (Streptococcus suis (prophage λSa2%2C)); experiment: SEC; SEC-UV; Superdex 200 Increase 10/300 GL; 50 mM phosphate buffer, pH 7.5, 150 mM NaCl; 0.1-0.4 mg/mL protein; 0.5 mL/min; mass from a calibration curve of standard proteins; PlyCYU214 also with 500 mM NaCl; self-association
[2] = molecular target: CW7_Lyz2 (amino acids 142 to 473, two cpl-7 motifs and the glucosaminidase domain of PlyCYU) (Streptococcus suis (prophage λSa2%2C)); experiment: SEC-MALS; Superdex 200 Increase 5/150 GL; 20 mM sodium phosphate, pH 7.0, 150 mM NaCl; 10 µL injected at 10 mg/mL; 0.2 mL/min; self-association, oligomeric number from mass over subunit mass
[3] = molecular target: His6-tagged PlyCYU endolysin (full-length) (Streptococcus suis (prophage λSa2%2C)); experiment: SEC; SEC-UV; Superdex 200 Increase 10/300 GL; 50 mM phosphate buffer, pH 7.5, 150 mM NaCl; 0.1-0.4 mg/mL protein; 0.5 mL/min; mass from a calibration curve of standard proteins; PlyCYU214 also with 500 mM NaCl; self-association
[4] = molecular target: His6-tagged PlyCYU endolysin (full-length) (Streptococcus suis (prophage λSa2%2C)); experiment: SEC-MALS; Superdex 200 Increase 5/150 GL; 20 mM sodium phosphate, pH 7.0, 150 mM NaCl; 10 µL injected at 10 mg/mL; 0.2 mL/min; self-association, oligomeric number from mass over subunit mass
[5] = molecular target: cyuLyz2 (amino acids 266 to 473, glucosaminidase domain of PlyCYU) (Streptococcus suis (prophage λSa2%2C)); experiment: SEC; SEC-UV; Superdex 200 Increase 10/300 GL; 50 mM phosphate buffer, pH 7.5, 150 mM NaCl; 0.1-0.4 mg/mL protein; 0.5 mL/min; mass from a calibration curve of standard proteins; PlyCYU214 also with 500 mM NaCl; self-association
[6] = molecular target: cyuLyz2 (amino acids 266 to 473, glucosaminidase domain of PlyCYU) (Streptococcus suis (prophage λSa2%2C)); experiment: SEC-MALS; Superdex 200 Increase 5/150 GL; 20 mM sodium phosphate, pH 7.0, 150 mM NaCl; 10 µL injected at 10 mg/mL; 0.2 mL/min; self-association, oligomeric number from mass over subunit mass

“CW7_Lyz2 (amino acids 142 to 473, two cpl-7 motifs and the glucosaminidase domain of PlyCYU) (domain or fragment)” showed a stoichiometry N [1] of 11.8 and a stoichiometry N [2] of 4.4.

In the case of “His6-tagged PlyCYU endolysin (full-length) (enzyme)”, the stoichiometry N [3] was 6.8 and the stoichiometry N [4] was 5.2.

Substance “cyuLyz2 (amino acids 266 to 473, glucosaminidase domain of PlyCYU) (domain or fragment)” has a stoichiometry N [5] of 6.9 and a stoichiometry N [6] of 3.9.
